We go through 35 variants from the Human Domainome abundance scans (Beltran et al. 2025).

B1: Zinc finger MYM-type protein 3, residues 589 to 668; numbered along this chain, Q14202 (parent)
chain: LSCHYCHSLFSGKPEVLDWQDQVFQFCCRDCCEDFKRLRGVVSQCEHCRQEKLLHEKLRFSGVEKSFCSEGCVLLYKQDF

± gives the uncertainty stated by the source.

In this series the parent is B1. Description: abundance fitness (aPCA) (normalised: wild type 0, dead -1); higher = more abundant; growth selection in yeast, the domain comes from the species named. The following applies: Homo sapiens.
On to LSHHYCHSLFSGKPEVLDWQDQVFQFCCRDCCEDFKRLRGVVSQCEHCRQEKLLHEKLRFSGVEKSFCSEGCVLLYKQDF [C3H], for which the abundance fitness is -1.17 ± 0.42.

For LSPHYCHSLFSGKPEVLDWQDQVFQFCCRDCCEDFKRLRGVVSQCEHCRQEKLLHEKLRFSGVEKSFCSEGCVLLYKQDF [C3P], the abundance fitness is -1.06 ± 0.12. For LSCHYCHSLFSGKPEVLDWQDQVFLFCCRDCCEDFKRLRGVVSQCEHCRQEKLLHEKLRFSGVEKSFCSEGCVLLYKQDF [Q25L] the value was -0.163 ± 0.046; for LSCHYCHSLFSGKPEVLDWQDQVFCFCCRDCCEDFKRLRGVVSQCEHCRQEKLLHEKLRFSGVEKSFCSEGCVLLYKQDF [Q25C], -0.081 ± 0.062. As to LSCHYCHSLFSGKPEVLDWQDQVFQFCCRDCCEDFKRLRGVVSQCEHCRQEKLLHEKLRFSGTEKSFCSEGCVLLYKQDF [V63T], the abundance fitness is -0.271 ± 0.28.

With LSCHYCHSLFSGKPEVLDWQDQVFQFCCRDCCEDFKRLRGVVSQCEHCRQEKLLHEKLCFSGVEKSFCSEGCVLLYKQDF [R59C], the abundance fitness was determined as 0.514 ± 0.18. The figure for LSCHYCHSLFSGKPEVLDWQDQVFQFCCRDCCEDFKRLRGVVSQCEHCRQEKLLHEKLQFSGVEKSFCSEGCVLLYKQDF [R59Q] is 0.11 ± 0.29; for LSCHYCHSLFSGKPEVLDWQDQVFQFCCRDCCEDFKRLRGVVSQCEHCRQEKLLHEKLRFSGVEKSFCSEGCVLLNKQDF [Y76N] it is 0.757 ± 0.38; for LSCHYCHSLFSGKPEVLDWQDQVFQFCCRKCCEDFKRLRGVVSQCEHCRQEKLLHEKLRFSGVEKSFCSEGCVLLYKQDF [D30K] it is 0.104 ± 0.062. The figure for LSCHYCHSLFSGKPEVLDWQDQVFQFCCRDCCEDFKRLRGVPSQCEHCRQEKLLHEKLRFSGVEKSFCSEGCVLLYKQDF [V42P] is 0.176 ± 0.48; for LSCHYCHKLFSGKPEVLDWQDQVFQFCCRDCCEDFKRLRGVVSQCEHCRQEKLLHEKLRFSGVEKSFCSEGCVLLYKQDF [S8K] it is 0.486 ± 0.044. The figure for LSCHYCHSLFSGKPEVLDWQDWVFQFCCRDCCEDFKRLRGVVSQCEHCRQEKLLHEKLRFSGVEKSFCSEGCVLLYKQDF [Q22W] is -0.054 ± 0.044; for LSCHYCHSLFSGKPEVLDWQDQVFQFCCRDCCEDFYRLRGVVSQCEHCRQEKLLHEKLRFSGVEKSFCSEGCVLLYKQDF [K36Y] it is -0.561 ± 0.14; for LSCHYCHSLFSGKPEVLDWQDQVFQFCCRDCCEDFKRLRGVVSQCEHCRQEKLLHEKLRFSGVEKSFCSAGCVLLYKQDF [E70A] it is -0.096 ± 0.15. With LSCHYCHSLFSGKPEVLDWQDQVFQFCCRDCCEDFKRLRGVVSQCEHCRQEKLLHEKLRFSGVEKSFCSLGCVLLYKQDF [E70L], the abundance fitness was -0.055 ± 0.15. For LSCHYCHSLFLGKPEVLDWQDQVFQFCCRDCCEDFKRLRGVVSQCEHCRQEKLLHEKLRFSGVEKSFCSEGCVLLYKQDF [S11L] the value was -0.374 ± 0.048. As to LSCHYCHSLFAGKPEVLDWQDQVFQFCCRDCCEDFKRLRGVVSQCEHCRQEKLLHEKLRFSGVEKSFCSEGCVLLYKQDF [S11A], the abundance fitness is -0.374 ± 0.047. For LSCHYCHSLFSGKPEVLDWQDQVFQFCCRDCCEDFKRLRGVVSQCEHCRQPKLLHEKLRFSGVEKSFCSEGCVLLYKQDF [E51P] the value was 0.127 ± 0.16. The figure for LSCHYCHSLFSGKPEVLDWQDQVFQFCCRDCCEDFKRLRGVVSQCEHPRQEKLLHEKLRFSGVEKSFCSEGCVLLYKQDF [C48P] is 0.207 ± 0.23; for LSCHYCHSLFSGKPEVLDWQDQVFQFCCRDCCEDFKRLRGVVSQCEQCRQEKLLHEKLRFSGVEKSFCSEGCVLLYKQDF [H47Q] it is 0.151 ± 0.15; for LSCHYCHSLFSGKPEVLDWQDQVFQFCCRDCCEDFKRLRGVVSQCECCRQEKLLHEKLRFSGVEKSFCSEGCVLLYKQDF [H47C] it is 0.345 ± 0.4. The figure for LSCHYCHSLQSGKPEVLDWQDQVFQFCCRDCCEDFKRLRGVVSQCEHCRQEKLLHEKLRFSGVEKSFCSEGCVLLYKQDF [F10Q] is -0.685 ± 0.065; for LSCNYCHSLFSGKPEVLDWQDQVFQFCCRDCCEDFKRLRGVVSQCEHCRQEKLLHEKLRFSGVEKSFCSEGCVLLYKQDF [H4N] it is 0.225 ± 0.054; for LSCHYCHSLFSGKPEVLDWQDQVFQFCRRDCCEDFKRLRGVVSQCEHCRQEKLLHEKLRFSGVEKSFCSEGCVLLYKQDF [C28R] it is 0.074 ± 0.039.

Turning to LSCHYCHSLFSGKPEVLDWQDQVFQFCCRDCCEDFKRLRGVVSQCEHCRQEKLLHEKLRTSGVEKSFCSEGCVLLYKQDF [F60T], the abundance fitness was -0.975 ± 0.46. The figure for LSCHYCHSLFSGKPEVLDWQDQVFQFCCRDCCEDFKRLRGVVSQCEHCRQEKLLHMKLRFSGVEKSFCSEGCVLLYKQDF [E56M] is -0.22 ± 0.22. Consider LSCHYCHSLFSGKPEQLDWQDQVFQFCCRDCCEDFKRLRGVVSQCEHCRQEKLLHEKLRFSGVEKSFCSEGCVLLYKQDF [V16Q], for which the abundance fitness was found to be 0.003 ± 0.055. The figure for LSCHYCHSLFSGKPEVLDWQDQVFQFCCRDCCEDFKRLRGRVSQCEHCRQEKLLHEKLRFSGVEKSFCSEGCVLLYKQDF [V41R] is 0.003 ± 0.14; for LSCHYCESLFSGKPEVLDWQDQVFQFCCRDCCEDFKRLRGVVSQCEHCRQEKLLHEKLRFSGVEKSFCSEGCVLLYKQDF [H7E] it is 0.158 ± 0.06. For LSCHYCASLFSGKPEVLDWQDQVFQFCCRDCCEDFKRLRGVVSQCEHCRQEKLLHEKLRFSGVEKSFCSEGCVLLYKQDF [H7A] the value was 0.154 ± 0.042. With LSCHYCWSLFSGKPEVLDWQDQVFQFCCRDCCEDFKRLRGVVSQCEHCRQEKLLHEKLRFSGVEKSFCSEGCVLLYKQDF [H7W], the abundance fitness was -0.187 ± 0.088.

Turning to LSCHYCHSLFSGKPEVLDWQDQVFQFCCRDCCEDFKRLRGVVSQCEHCRQEKLLHEKLRFSGVEKSFCSEGCVLMYKQDF [L75M], the abundance fitness turned out to be 0.176 ± 0.41. Take LSCHYCHSLFSGKPEVLDWQDQVFQFCCRDCCEDFKRLRGVVSQCEHCRQEKLLHEKLRFSGVEKSFCSEGCVLVYKQDF [L75V]: the abundance fitness was -0.551 ± 0.15. With LSCHYCHSLFSGKPEVLDWQDQVFQFCCRDCCEDFKRLRGVVSQQEHCRQEKLLHEKLRFSGVEKSFCSEGCVLLYKQDF [C45Q], the abundance fitness is -1 ± 0.49. Consider LSCHYCHSLFSGKPEVLDWQDQVFQFCCRDCCEDFKRLRGVVSQWEHCRQEKLLHEKLRFSGVEKSFCSEGCVLLYKQDF [C45W], for which the abundance fitness was -0.983 ± 0.3.
